Reference: publication PMC3038193

Molecular target: ApoE2 (C112S, C158S, A102C), labeled with Alexa488 or Alexa546 at position 102
Assay: FRET or BRET

- k−1 (dissociation, dimer to monomers): 0.00066 s⁻¹
- k−2 (dissociation, tetramer to dimers): 0.0036 s⁻¹
Substance: ApoE2 (C112S, C158S, A102C), labeled with Alexa488 or Alexa546 at position 102 (natural protein)
